According to patent US7968692B2, “Elongase genes and uses thereof” (Abbott Laboratories, priority 1998, dated 2011):

System: S. cerevisiae 334
Test: Human elongase HSELO1 activity in yeast
Assay type: cell-based, Saccharomyces cerevisiae
Description: The construct pRAE-58-A1 was transformed into S. cerevisiae 334 (Hoveland et al., supra) and screened for elongase activity. The negative control strain was S. cerevisiae 334 containing pYX242 vector. The cultures were grown for 24 hours at 30° C., in selective media (Ausubel et al., supra), in the presence of 25 μM of GLA or AA. In this study, DGLA or adrenic acid (ADA, 22:4n-6), respectively, was the predicted product of human elongase activity. […] Thus, the human elongase converts both 18 and 20 carbon chain long PUFAs to their respective elongated fatty acids.
To further confirm the substrate specificity of the human elongation enzyme, described above and referred to herein as HSELO1, the recombinant yeast strain 334(pRAE-58-A1) was grown in minimal media containing n-6 fatty acids GLA, AA, or n-3 fatty acids ALA, STA, or EPA. […] The levels of these fatty acids were 7.29% (DGLA), 6.26% (ADA), 6.15% (ETrA), 10.06% (ETA), and 6.66% (DPA), respectively, of the total fatty acids in the strain containing the pRAE-58-A1 sequence.
To confirm this hypothesis, 25 μM of exogenous OA was added as a substrate to the recombinant yeast strain 334(pRAE-58-A1).
To determine whether the substrate concentration affects the conversion of 18 and 20 carbon fatty acids to the respective elongated products, two different concentrations of GLA, AA, and EPA were examined (FIG. 52).
Although the addition of more substrates led to higher percentages of the two carbon elongated products, the overall conversion rate decreased by at least 35%.
To further confirm the substrate specificity of HSELO1p, the recombinant yeast strain 334(pRAE-58-A1) was grown in minimal media containing 25 μM of saturated, monounsaturated, or PUFAs. […] However, this is not an increase in the level of OA compared to the samples where PTA was not added, as OA was 25-31% of the total fatty acids in all samples. […] The levels of these fatty acids were 0.74% (C20:2n-6), 2.46% (DGLA), and 2.14% (ADA), respectively, of the total fatty acids in the lysates of 334(pRAE-58-A1). […] HSELO1p is also involved in the elongation of n-3 PUFAs ALA, STA, and EPA, but not DPA (FIG. 53C). […] The levels of these fatty acids were 1.03% ETrA, 2.24% (ETA), and 3.19% (DPA), respectively, of the total fatty acids in the strain containing the pRAE-58-A1 sequence.

B1: HSELO1: human elongase from liver cDNA (SEQ ID NO:3), expressed in yeast from pRAE-58-A1 (protein, listed as Homo sapiens)
chain: MEHFDASLSTYFKALLGPRDTRVKGWFLLDNYIPTFICSVIYLLIVWLGPKYMRNKQPFSCRGILVVYNLGLTLLSLYMFCELVTGVWEGKYNFFCQGTRTAGESDMKIIRVLWWYYFSKLIEFMDTFFFILRKNNHQITVLHVYHHASMLNIWWFVMNWVPCGHSYFGATLNSFIHVLMYSYYGLSSVPSMRPYLWWKKYITQGQLLQFVLTIIQTSCGVIWPCTFPLGWLYFQIGYIISLIALFTNFYIQTYNKKGASRRKDHLKDHQNGSVAAVNGHTNSFSPLENNVKPRKLRKD
- level of ADA, of total fatty acids (25 μM AA, 24 hours at 30° C., FIG. 45): 1.21%
- conversion of AA to ADA (25 μM AA, FIG. 52): 27.5%
- level of ADA, of the total fatty acids (25 μM AA, FIG. 52): 2.91%
- conversion of AA to ADA (25 μM AA, FIG. 53B): 27.1%
- level of ADA, of the total fatty acids (25 μM AA, FIG. 53B): 2.14%
- conversion of ALA to ETrA (25 μM ALA, FIG. 53C): 22.2%
- level of ETrA, of the total fatty acids (25 μM ALA, FIG. 53C): 1.03%
- conversion of EPA to DPA (25 μM EPA, FIG. 52): 70.3%
- level of DPA, of the total fatty acids (25 μM EPA, FIG. 52): 4.82%
- conversion of EPA to DPA (25 μM EPA, FIG. 53C): 39.5%
- level of DPA, of the total fatty acids (25 μM EPA, FIG. 53C): 3.19%
- level of DGLA, of total fatty acids (25 μM GLA, 24 hours at 30° C., FIG. 45): 2.75%
- conversion of GLA to DGLA (25 μM GLA, FIG. 52): 62.4%
- level of DGLA, of the total fatty acids (25 μM GLA, FIG. 52): 3.95%
- conversion of GLA to DGLA (25 μM GLA, FIG. 53B): 51.4%
- level of DGLA, of the total fatty acids (25 μM GLA, FIG. 53B): 2.46%
- conversion of LA to C20:2n-6 (25 μM LA, FIG. 53B): 13.2%
- level of C20:2n-6, of the total fatty acids (25 μM LA, FIG. 53B): 0.74%
- conversion of STA to ETA (25 μM STA, FIG. 53C): 61.9%
- level of ETA, of the total fatty acids (25 μM STA, FIG. 53C): 2.24%
- conversion of OA to EA (25 μM of exogenous OA): 8.9%
- accumulation of EA, of the total fatty acids (25 μM of exogenous OA, FIG. 51): 2.25%
- elongation of monounsaturated fatty acids OA and EA (25 μM substrate): also not involved
- elongation of saturated fatty acids PA, SA, ARA, BA (25 μM substrate, FIG. 53A): not involved
- elongation of n-6 PUFAs DGLA or ADA (25 μM substrate, FIG. 53B): but not DGLA or ADA
- elongation of n-3 PUFA DPA (25 μM substrate, FIG. 53C): but not DPA
- conversion of AA to ADA (100 μM AA, FIG. 52): 15.7%
- level of ADA, of the total fatty acids (100 μM AA, FIG. 52): 3.90%
- conversion of EPA to DPA (100 μM EPA, FIG. 52): 45.7%
- level of DPA, of the total fatty acids (100 μM EPA, FIG. 52): 11.50%
- conversion of GLA to DGLA (100 μM GLA, FIG. 52): 39.8%
- level of DGLA, of the total fatty acids (100 μM GLA, FIG. 52): 9.56%
- decrease of overall conversion rate (100 μM versus 25 μM of substrates GLA, AA, EPA): at least 35%
- OA, of the total fatty acids (PTA added as a substrate, not an increase, OA was 25-31% in all samples): 12.76%
- endogenous conversion of C16:1n-7 to C18:1n-7 (endogenous substrate): 20.4%
- endogenous conversion of C18:1n-7 to C20:1n-7 (endogenous substrate): 58.1%
- conversion of AA to ADA (substrate AA, FIG. 51): 42.7%
- level of ADA, of the total fatty acids (substrate AA, FIG. 51): 6.26%
- conversion of ALA to ETrA (substrate ALA, FIG. 51): 30.4%
- level of ETrA, of the total fatty acids (substrate ALA, FIG. 51): 6.15%
- conversion of EPA to DPA (substrate EPA, FIG. 51): 71.7%
- level of DPA, of the total fatty acids (substrate EPA, FIG. 51): 6.66%
- conversion of GLA to DGLA (substrate GLA, FIG. 51): 78.3%
- level of DGLA, of the total fatty acids (substrate GLA, FIG. 51): 7.29%
- conversion of STA to ETA (substrate STA, FIG. 51): 79.2%
- level of ETA, of the total fatty acids (substrate STA, FIG. 51): 10.06%
